Assay: soluble on expression in E. coli; label from the status in PepcDB or PDB records

| Sequence | soluble on expression in E. coli |
| --- | --- |
| SQGRKPSSELISYQRLHPNEFEIKNLGVLPQSHVIRMERVRFADDIPVAYEITSIPEKIIRGFKESEITEHFFKTLTDNGYEIGKSQQTISASLANSSLAKHLKVKTGDALLSLTQISFLQDGQAFEYVRSYYVGDRFE | not soluble |
| DYIVEKLNMTKMYDIFSQYLPPQVFINDDSVVHLVRNSIYYKKMRGKHDLVILAGDFQGTTQEAQYELSYQVLQIAKEIGVSMIYTLGGYSIGKIVDKPRVLGAVTDKNLVADLEKNGVVFPKGE | not soluble |
| MSLNASVSPKGSLETLSQREVQQLSEVGTGSLYTLFRQCALAILNTGAHVDNAKTILEAYKDFEVRIHQQDRGVRLELLNAPADAFVDGEMIASTREMLFSALRDIVYTESELASQRIDLESSQGITDYVFHLLRNARTLRPGEGHHHHHH | not soluble |
| MSLHPEQIHNAINCLCLAATATVAGAMISMGCTTGQRSNSRNSRKSSRSNKSKRSQRSKRRSAQRKKSSSRRKKKLRKEKSRKSQRSKRKKRESERRKKERSKRIARSKKSIKRDRERDSDSSRIKKSGSKRNLEKSNRDDSKRKISKDKNSRRSSQEKSHKYSEPLFIPPVDYDDRDRSLKKKKSVRDNNEEGSRRSSSRDKSKDMKEKSQQSKKDSSRKSKKQQKSEKKKSAEQDNRSDPEDDREAEAPNWRRRRRAKEDQNVKARKTKKVKKNEEVPSKKSSKMSKRSKRSTDENLETAKSSRILKDSEPKSSRSSVTSQKIDSSRGMSKLRADALKRMEPKLLVSPNANSDRFQCNEKGCQKGQCSSEARYAQNVRRSASQKSLRAPKENKLKDGSAKTPKVSSTTTPPVDTMRTPTQEPRSIYIETGKSTYGEASKTSGNNARSVYLADPVSAPKAYSVTPQKSTKTPSERKSEKNLEKKASKKSIKSSRSGIQQREVTKTSSKHSSKHSKAPSSKKSSKKSSKKEQKSRALSNSSSKKSVGSHRNKSNR | not soluble |
| GARIKTLSVSRPIIYGNTAKKMGSVKPPNAPAEHTHLWTIFVRGPQNEDISYFIKKVVFKLHDTYPNPVRSIEAPPFELTETGWGEFDINIKVYFVEEANEKVLNFYHRLRLHPYANPVPNSDNGNEQNTTDHNSKDAEVSSVYFDEIVFNEPNEEFFKILMSR | soluble |
| MSLKSILIMGGSDFIGSALAKRLIKCGYQIDILTNGKKEIDYNGFKEHLICDRKVRKDMENIITGRKYDYIYDMTAYTKEDVSNLIDFISMDNLKKYIVLSAGAVYKDSGRNIKEENEKGENENWGKYGLNKKEAEDFIINSPIPYIIIRPTYIYGENNNLYREYYFFEKIEKNEKIPVPKGKQVSNQFIYIGDLVKVLESIMKNPHVREAYNVTNPQLISWDDLIYTCGEIIGKEPIIKYVDMEKVEFRERTYFPFRNIDFNLDINKLIEHGLYIPNVLLKEGLTATYKWFSANKPKMHDRKMNKVESVMQIEGHHHHHH | soluble |
| PVLTQTSEQAPSSAPRDVQARMLSSTTILVQWKEPEEPNGQIQGYRVYYTMDPTQHVNNWMKHNVADSQITTIGNLVPQKTYSVKVLAFTSIGDGPLSSDIQVITQTG | soluble |
| MGSDKIHHHHHHMELRDLQIFKCVAHHKSITGAAKELNYVQSNVTARIKQLENELKTPLFNRHKKGVSLSPEGRKMIEYVNKILKDVEELEQVFLDTEIPSGILKIGTVETVRILPTIIASYYKKYPNVDLSLQAGLTEELIKKVMNHELDGAFISGPLKHSILEQYDVYTEKLTLVTSNKTFNIEDFSTTPILVFNQGCGYRSRLEQWLKDEGVLPNRMMEFNILETILNSVALGLGITVVPESAVMHLAVQGKVYCHPLPEKDSCISTIFIRHKDAYLTNSMRSLLKTIVEHKNMSMA | not soluble |
| MGHHHHHHSHMAGAGVPGEATGRGAGGRRRKRPLQRGKPPYSYIALIAMAIAHAPERRLTLGGIYKFITERFPFYRDNPKKWQNSIRHNLTLNDCFLKIPREAGRPGKGNYWALDPNAEDMFESGSFLRRRKRFKRSDLST | soluble |
| MARRILVVEAEAPIREMVCFVLEQNGFQPVEAEDYDSAVNQLNEPWPDLILLEWMLPGGSGIQFIKHLKRESMTRDIPVVMLTARGEEEDRVRGLETGADDYITKPFSPKELVARIKAVMRRISPMA | soluble |
| SKDFTWEVGYNITWNDSKITKLTTTFNPDYQGIDAGTNQKHQVGEMPGTFYLYQQVYDENGKPIQNAFVDRNNDGQITEADRYLTHKSPMAKVYMGFSSQFSYKKWDLGFNLRANFGNYVYNGVASGNSTSNNYGGKGFVTNLYNGFQDTGFTLLNTSEQMASDYFLENASFLKMDNITLGYSFQNLFAAKLSGRISASVQNVFTISKYSGLDPECGAIDSNIWPRPRTYTIGLNLNF | not soluble |
| MEELQDDYEDMMEENLEQEEYEDPDIPESQMEEPAAHDTEATATDYHTTSHPGTHKVYVELQELVMDEKNQELRWMEAARWVQLEENLGENGAWGRPHLSHLTFWSLLELRRVFTKGTVLLDLQETSLAGVANQLLDRFIFEDQIRPQDREELLRALLLKHSHAGELEALGGVKPAVLTRSGDPSQPLLPQHSSLETQLFCEQGDGGTEGHSPSGILEKIPPDSEATLVLVGRADFLEQPVLGFVRLQEAAELEAVELPVPIRFLFVLLGPEAPHIDYTQLGRAAATLMSERVFRIDAYMAQSRGELLHSLEGFLDCSLVLPPTDAPSEQALLSLVPVQRELLRRRYQSSPAKPDSSFYKGLDLNGGPDDPLQQTGQLF | soluble |
| MAHHHHHHMSSDYSRVCAAEKASESHPPGYSRDALETELREGFRKQQQQVNKNRQVEQMALAKGLGESATTSLKDGFYIPHKVLPPLKPEEKKLFERIDIMKWCGRAGRKLEDSAVAPPPTLGEVPAEHQPMQVQEHQASTEADAEDALSTSVSSTASSLAALKDNSSEDVRHLLHQLRSTSRATSSLRDARAEVDDNIQAVEEALLRQSSPLSFEDLLDTAARLLAAMERGELTEDVVVPRGADVSTEKDEGSPGSPADSAEAPLSASGSTTRVLHGAVEVETYTRKHLLPRAYQVVAIAHTAEWILQYTMAYLRTTVAVNQDEAFTRLTLLARCVRLLGDIENFSSILLSLETKCEEYAGFAALKDTAEKHLGTLLDDVETSLDAILSAPFPSRRSRLLLLEGGIQKKLQRALLFLNEIDYSWTPHVRFHWAWKVQLLSASFHRIHGLISRKHMQCSMGFVDDSLYERVADTRITGRYMGASPVQPKVLRAQQVEYEKITEGLTFQQIGMSIKGVASLLIGEQLCMGARYILCQSTKQFDPVWGFHMDEISTAPTQEELSAMAAKIAVHAKEQLTARPTIARKEHSSSTFLTQM | not soluble |
| MNVVILDTGCANLNSVKSAIARHGYEPKVSRDPDVVLLADKLFLPGVGTAQAAMDQVRERELFDLIKACTQPVLGICLGMQLLGRRSEESNGVDLLGIIDEDVPKMTDFGLPLPHMGWNRVYPQAGNRLFQGIEDGAYFYFVHSYAMPVNPWTIAQCNYGEPFTAAVQKDNFYGVQFHPERSGAAGAKLLKNFLEM | soluble |
| MKKGIDIGGTFIKVLWEDGKKEKHYIKDLKKDREALMEKIREVIKAGNPSGVGIAVAGFTSLNGIVYKSPNIPALDKTDFRKVLEDINIPFVVGNDVNLGAFGEWYYDYRDSKILLLVAVGTGLGTGLVYKGEVFFGVCGSALEMGHHTVKKGGELCNCGRKGCWEAYCSSYAIEREYKKLTGRTLKDYEIAEKAKEGEEEALKVVESFKDYLITGLMNGVHIFNPDRIVLAGGVIETFKEFLRDVPEKVKEISEELPALCLKISFSRAGEFMGARGALAYALKYLLEHHHHHH | soluble |
| MKVLDLIDKYYPQDNELKHILNVHSRSVADKALWIAGKHPELNLDTVFLEEAAMLHDIGIFLTHAPGIQCFGTEPYICHGYLGAGLVRKEGFPRHALVCERHTGAGLSLKDIMDQKLPVPHREMLPVSMEEQVICFADKFFSKTHLDREKTVEGARKSIAKYGDEGLQRFNNWCKLFL | not soluble |
| MGSDKIHHHHHHVSEAIVFTSGKGGVGKTTVISNIGVELSQLDKKVIMLDTDMGLRNLDLVMGIEDKVNYNILDILNRSCRIRQAIIRNKKYPNLYVIPAAPSMDTLCSYEARFKILIEELKASFDYCLIDSPAGIDSGFWFSVSPADRAIVVTTPHVSAIHDARRCISLLDSAHLDDISVIVNAYDKHMVRRHQMISDNDITALLSTRIIGTIPYDKSVIICQNRGIPVREAKSRLSPVFARISGQIIHSSDDMRGAAV | not soluble |
| MKIITCYKCVPDEQDIAINNADGTLDFSKADSKISQYDLNAIEAACQLKQQLGDAQVVAMSVGGKALTNAKGRKDVLSRGPDELIVVIDDQFEQALPQHTATALAAAAQKSGFDLLICGDGSSDLYAQQVGLLVGEALNIPAINGVSKILSLTDSTLTVERELEDEVETLSIPLPAVIAVSTDINTPQIPSMKAILGAAKKPVQVWSPADIGLNSVPAYSAQQVAAPKQRERQRVVIEGDGEEQIAAFVENLRKII | not soluble |
| GSHMPSRRMLHTMIRVGDLDRSIKFYTERLGMKVLRKWDVPEDKYTLVFLGYGPEMSSTVLELTYNYGVTSYKHDEAYGHIAIGVEDVKELVADMRKHDVPIDYEDESGFMAFVVDPDGYYIELLNEKTMMEKAEADMKEQGTA | soluble |
| MAHHHHHHMCATSKENTPEFYKKYVKDIIDRIEDNARREFEAIWRDHESHPGMSKTLISDTLSEKNVKVRANILASDVFKNKKLVRYILFHYTPKTLLEVVPVDELMNRVPIAYQHAICAMWLASEYVYSTGIDSNEFDFFSFMSAHIERASAMAKEQSR | soluble |
| MKDLIIIGAGQAGLTMGYYLKQEGYNFLLLEAGNRVGDSWRNRYDSLQLFTPRSYSSLPGMALIGEKNEFPYKDEIATYLEEYARHFQLPVQLQTEVLKIRKEKGIFELHTSTEILQTKKVIIATGGFQQPFIPSVSANLSSHVFQIHSSQYKSPSQIPQGKVLVVGGGNSGMQIAVEFAKTHEVTMSISHPLTFLPLHFFRKSIFNWLEKLGLLYAEVSTKRGKWFQKRKDPLEHHHHHH | soluble |
| MRLEKFIHLLGERGFDGALISPGTNLYYLTGLRLHEVGERLAILAVSAEGDYRFLAPSLYENVVNNFPATFWHDGENPYAKLREILEELGISKGRILIEDTMRADWLIGIMKLGKFTFQPLSSLIKELRMIKDKEEVKMMEHASRIADKVFEEILTWDLIGMKERELALKIELLIRELSDGIAFEPIVASGENAANPHHEPGERKIRKGDIIILDYGARWKGYCSDITRTIGLGELDERLVKIYEVVKDAQESAFKAVREGIKAKDVDSRAREVISKAGYGEYFIHRTGHGLGLDVHEEPYIGPDGEVILKNGMTFTIEPGIYVPGLGGVRIEDDIVVDEGKGRRLTKAERELIIL | soluble |
| MAAQRRSLLQSEQQPSWTDDLPLCHLSGVGSASNRSYSADGKGTESHPPEDSWLKFRSENNCFLYGVFNGYDGNRVTNFVAQRLSAELLLGQLNAEHAEADVRRVLLQAFDVVERSFLESIDDALAEKASLQSQLPEGVPQHQLPPQYQKILERLKTLEREISGGAMAVVAVLLNNKLYVANVGTNRALLCKSTVDGLQVTQLNVDHTTENEDELFRLSQLGLDAGKIKQVGIICGQESTRRIGDYKVKYGYTDIDLLSAAKSKPIIAEPEIHGAQPLDGVTGFLVLMSEGLYKALEAAHGPGQANQEIAAMIDTEFAKQTSLDAVAQAVVDRVKRIHSDTFASGGERARFCPRHEDMTLLVRNFGYPLGEMSQPTPSPAPAAGGRVYPVSVPYSSAQSTS | soluble |
| MQRLFVYGSLGPGRPNEHLMQKIGGQWQAASLRGRLLEKGWGAGMGFPGLAIDADGEEIHGHVFVSDRLAEHWPALDEFEGSEYRRVATRVTLADGAQVDAYVYALRD | not soluble |

From the DeepSol protein solubility set
